B1: TRAF3IP2 (parent)
chain: FMEKRNQWLVSQLSAASPDTGHDS

We go through 94 variants from the supplement of paper PMC10567573.
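Further: lentivirally expressed fusions sorted by FACS into six bins by GFP to DsRed ratio, PSI derived from sequencing read proportions per bin multiplied by bin number.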

The data set covers variants of B1. The data set is described as follows: protein stability index of a GFP-peptide fusion (GPS, HEK-293T) (PSI 1-6); higher = more stable. The following applies: c terminus: a fixed tail appended.
As for FMEKRNQWLVSQLSAASPCTGHDS [D19C], the protein stability index worked out at 2.45.
Then FMEKRNQWLVSQLSAASPRTGHDS [D19R], with 2.9; and FMEKRNQWLVSQLSAASPETGHDS [D19E], with 1.91.
For the variant FMEKRNQWLVSQLSAASPITGHDS [D19I], the protein stability index turned out to be 2.52.
Then FMEKRNQWLVSQLSAASPFTGHDS [D19F], with 1.8; and FMEKRNQWLVSQLSAASPPTGHDS [D19P], with 2.33.
For FMEKRNQWLVSQLSAASPVTGHDS [D19V], the protein stability index worked out at 1.92.
Take FMEKRNQWLVSQLSAASPGTGHDS [D19G]: the protein stability index is 1.7.
Take FMEKRNQWLVSQLSAASPYTGHDS [D19Y]: the protein stability index is 1.41.
FMEKRNQWLVSQLSAASPNTGHDS [D19N]: the protein stability index was found to be 2.4.
In the case of FMEKRNQWLVSQLSAASPLTGHDS [D19L], the protein stability index was 1.92.
Then FMEKRNQWLVSQLSAASPATGHDS [D19A], with 3.69.
With FMEKRNQWLVSQLSAASPHTGHDS [D19H], the protein stability index came out at 2.2.
For the variant FMEKRNQWLVSQLSAASPSTGHDS [D19S], the protein stability index worked out at 2.43.
FMEKRNQWLVSQLSAASPWTGHDS [D19W]: the protein stability index turned out to be 1.52.
Take FMEKRNQWLVSQLSAASPKTGHDS [D19K]: the protein stability index is 2.28.
For the variant FMEKRNQWLVSQLSAASPTTGHDS [D19T], the protein stability index amounted to 3.02.
Then FMEKRNQWLVSQLSAASPMTGHDS [D19M], with 2.57; and FMEKRNQWLVSQLSAASCDTGHDS [P18C], with 2.22; and FMEKRNQWLVSQLSAASYDTGHDS [P18Y], with 2.7.
Then FMEKRNQWLVSQLSAASRDTGHDS [P18R], with 2.77; and FMEKRNQWLVSQLSAASEDTGHDS [P18E], with 2.62; and FMEKRNQWLVSQLSAASLDTGHDS [P18L], with 1.93.
Then FMEKRNQWLVSQLSAASSDTGHDS [P18S], with 1.49; and FMEKRNQWLVSQLSAASADTGHDS [P18A], with 2.35; and FMEKRNQWLVSQLSAASWDTGHDS [P18W], with 1.67.
FMEKRNQWLVSQLSAASGDTGHDS [P18G]: the protein stability index was determined as 2.38.
Consider FMEKRNQWLVSQLSAASQDTGHDS [P18Q], for which the protein stability index came to 2.09.
Then FMEKRNQWLVSQLSAASVDTGHDS [P18V], with 2.54; and FMEKRNQWLVSQLSAASTDTGHDS [P18T], with 2.94; and FMEKRNQWLVSQLSAASIDTGHDS [P18I], with 2.69.
To FMEKRNQWLVSQLSAASNDTGHDS [P18N] belongs 2.5; to FMEKRNQWLVSQLSAASMDTGHDS [P18M], 2.22; to FMEKRNQWLVSQLSAASHDTGHDS [P18H], 2.08.
Then FMEKRNQWLVSQLSAASDDTGHDS [P18D], with 2.88; and FMEKRNQWLVSQLSAASKDTGHDS [P18K], with 2.42; and FMEKRNQWLVSQLSAASFDTGHDS [P18F], with 1.9.
As to FMEKRNQWLVSQLSAAEPDTGHDS [S17E], the protein stability index came out at 2.88.
For the variant FMEKRNQWLVSQLSAACPDTGHDS [S17C], the protein stability index was found to be 2.98.
To FMEKRNQWLVSQLSAAMPDTGHDS [S17M] belongs 2.1.
Turning to FMEKRNQWLVSQLSAALPDTGHDS [S17L], the protein stability index amounted to 2.54.
To FMEKRNQWLVSQLSAAKPDTGHDS [S17K] belongs 2.41; to FMEKRNQWLVSQLSAATPDTGHDS [S17T], 3.03; to FMEKRNQWLVSQLSAADPDTGHDS [S17D], 2.94.
To FMEKRNQWLVSQLSAAVPDTGHDS [S17V] belongs 1.88; to FMEKRNQWLVSQLSAAHPDTGHDS [S17H], 2.73; to FMEKRNQWLVSQLSAARPDTGHDS [S17R], 2.46.
To FMEKRNQWLVSQLSAAIPDTGHDS [S17I] belongs 2.19; to FMEKRNQWLVSQLSAAYPDTGHDS [S17Y], 1.71.
Turning to FMEKRNQWLVSQLSAAWPDTGHDS [S17W], the protein stability index is 1.57.
Regarding FMEKRNQWLVSQLSAANPDTGHDS [S17N], the protein stability index was 2.35.
Then FMEKRNQWLVSQLSAAFPDTGHDS [S17F], with 1.88; and FMEKRNQWLVSQLSAAGPDTGHDS [S17G], with 2.47; and FMEKRNQWLVSQLSAAPPDTGHDS [S17P], with 2.66.
Then FMEKRNQWLVSQLSAAQPDTGHDS [S17Q], with 2.63; and FMEKRNQWLVSQLSAESPDTGHDS [A16E], with 2.62.
To FMEKRNQWLVSQLSALSPDTGHDS [A16L] belongs 1.38; to FMEKRNQWLVSQLSAYSPDTGHDS [A16Y], 1.87; to FMEKRNQWLVSQLSANSPDTGHDS [A16N], 2.9.
As for FMEKRNQWLVSQLSAPSPDTGHDS [A16P], the protein stability index was 2.14.
Then FMEKRNQWLVSQLSAFSPDTGHDS [A16F], with 2.9; and FMEKRNQWLVSQLSAGSPDTGHDS [A16G], with 3.03; and FMEKRNQWLVSQLSAVSPDTGHDS [A16V], with 2.26.
To FMEKRNQWLVSQLSASSPDTGHDS [A16S] belongs 2.39; to FMEKRNQWLVSQLSAKSPDTGHDS [A16K], 2.09.
To FMEKRNQWLVSQLSATSPDTGHDS [A16T] belongs 1.96; to FMEKRNQWLVSQLSAMSPDTGHDS [A16M], 2.06.
As to FMEKRNQWLVSQLSAISPDTGHDS [A16I], the protein stability index was determined as 2.26.
Then FMEKRNQWLVSQLSARSPDTGHDS [A16R], with 1.54.
Then FMEKRNQWLVSQLSAQSPDTGHDS [A16Q], with 2.6; and FMEKRNQWLVSQLSACSPDTGHDS [A16C], with 1.96.
To FMEKRNQWLVSQLSAHSPDTGHDS [A16H] belongs 2.47.
Consider FMEKRNQWLVSQLSADSPDTGHDS [A16D], for which the protein stability index was 2.29.
To FMEKRNQWLVSQLSRASPDTGHDS [A15R] belongs 3.45.
Then FMEKRNQWLVSQLSSASPDTGHDS [A15S], with 1.79.
In the case of FMEKRNQWLVSQLSWASPDTGHDS [A15W], the protein stability index was 2.29.
Then FMEKRNQWLVSQLSVASPDTGHDS [A15V], with 1.83; and FMEKRNQWLVSQLSTASPDTGHDS [A15T], with 2.7.
Then FMEKRNQWLVSQLSAASPDSGHDS [T20S], with 3.24; and FMEKRNQWLVSQLSAASPDEGHDS [T20E], with 1.75; and FMEKRNQWLVSQLSAASPDMGHDS [T20M], with 3.13.
As to FMEKRNQWLVSQLSAASPDAGHDS [T20A], the protein stability index is 2.32.
To FMEKRNQWLVSQLSAASPDRGHDS [T20R] belongs 1.89; to FMEKRNQWLVSQLSAASPDCGHDS [T20C], 2.65; to FMEKRNQWLVSQLSAASPDHGHDS [T20H], 2.38.
Then FMEKRNQWLVSQLSAASPDLGHDS [T20L], with 1.96; and FMEKRNQWLVSQLSAASPDQGHDS [T20Q], with 2.51.
For the variant FMEKRNQWLVSQLSAASPDDGHDS [T20D], the protein stability index stood at 2.94.
Take FMEKRNQWLVSQLSAASPDIGHDS [T20I]: the protein stability index turned out to be 1.74.
Regarding FMEKRNQWLVSQLSAASPDVGHDS [T20V], the protein stability index came to 2.75.
Then FMEKRNQWLVSQLSAASPDPGHDS [T20P], with 1.99; and FMEKRNQWLVSQLSAASPDFGHDS [T20F], with 1.97; and FMEKRNQWLVSQLSAASPDNGHDS [T20N], with 2.1.
To FMEKRNQWLVSQLSAASPDKGHDS [T20K] belongs 2.47.
